Test results as given in patent US12195506B2, “Immunotherapy with A*01 restricted peptides and combination of peptides against cancers and related methods” (Immatics Biotechnologies GmbH, priority 2018, dated 2025).

molecular target: HLA-A*01:01 (Homo sapiens, UniProt P04439, A114D/A174V/A182V/D101N/D185E/E176A/E190D/L180R/Q94H/R68K/S129P/T187R/V100A/V91M/W191G); assay: MHC binding assay: UV-ligand exchange, ELISA of stabilized MHC complexes (peptide exchange yield); details: binding to HLA-A*01:01, UV-ligand exchange
Excerpt: Candidate peptides for T cell based therapies according to the present invention were further tested for their MHC binding capacity (affinity). The individual peptide-MHC complexes were produced by UV-ligand exchange, where a UV-sensitive peptide is cleaved upon UV-irradiation and exchanged with the peptide of interest as analyzed. Only peptide candidates that can effectively bind and stabilize the peptide-receptive MHC molecules prevent dissociation of the MHC complexes. To determine the yield of the exchange reaction, an ELISA was performed based on the detection of the light chain (β2m) of stabilized MHC complexes. The assay was performed as generally described in Rodenko et al. (Rodenko et al., 2006)
96 well MAXISorp plates (NUNC) were coated over night with 2 ug/ml streptavidin in PBS at room temperature, washed 4× and blocked for 1 h at 37° C. in 2% BSA containing blocking buffer. Refolded HLA-A*02:01/MLA-001 monomers served as standards, covering the range of 15-500 ng/ml. Peptide-MHC monomers of the UV-exchange reaction were diluted 100-fold in blocking buffer. Samples were incubated for 1 h at 37° C., washed four times, incubated with 2 ug/ml HRP conjugated anti-β2m for 1 h at 37° C., washed again and detected with TMB solution that is stopped with […]. Absorption was measured at 450 nm.

Substance | Peptide exchange
1 (TLDSTRTLY; listed as Homo sapiens) [compound 1] | ++++ (>75% = ++++)
2 (VDPIGHLY; listed as Homo sapiens) [compound 2] | ++ (>20% = ++)
3 (FGTTPAAEYF; listed as Homo sapiens) [compound 3] | ++ (>20% = ++)
4 (RIEAIRAEY; listed as Homo sapiens) [compound 4] | ++ (>20% = ++)
5 (FMVIAGMPLFY; listed as Homo sapiens) [compound 5] | +++ (>50 = +++)
6 (ARDPITFSF; listed as Homo sapiens) [compound 6] | ++ (>20% = ++)
7 (ASDDVRIEVGLY; listed as Homo sapiens) [compound 7] | ++++ (>75% = ++++)
8 (TSRAANIPGY; listed as Homo sapiens) [compound 8] | + (>10% =+)
9 (QLDSTLDSY; listed as Homo sapiens) [compound 9] | +++ (>50 = +++)
13 (NTHTGTRPY; listed as Homo sapiens) [compound 13] | ++ (>20% = ++)
14 (QSEKEPGQQY; listed as Homo sapiens) [compound 14] | +++ (>50 = +++)
15 (YLDSSKPAVY; listed as Homo sapiens) [compound 15] | +++ (>50 = +++)
16 (NSDISIPEY; listed as Homo sapiens) [compound 16] | +++ (>50 = +++)
17 (ASWAVLCYY; listed as Homo sapiens) [compound 17] | +++ (>50 = +++)
20 (LSAQHRMLA; listed as Homo sapiens) [compound 20] | ++ (>20% = ++)
21 (LSSAVNPIIY; listed as Homo sapiens) [compound 21] | ++ (>20% = ++)
22 (VMDTLGLFY; listed as Homo sapiens) [compound 22] | ++++ (>75% = ++++)

Substance | Peptide exchange
23 (DTDPLKAAGL; listed as Homo sapiens) [compound 23] | + (>10% =+)
25 (AMMQEAQLAY; listed as Homo sapiens) [compound 25] | +++ (>50 = +++)
28 (PSEVPVDSHYY; listed as Homo sapiens) [compound 28] | +++ (>50 = +++)
29 (TLEDLDNLYNY; listed as Homo sapiens) [compound 29] | +++ (>50 = +++)
30 (VTTDKPRAY; listed as Homo sapiens) [compound 30] | ++ (>20% = ++)
31 (VSDHLQAGMLGQY; listed as Homo sapiens) [compound 31] | +++ (>50 = +++)
32 (GTDKQNSTLRY; listed as Homo sapiens) [compound 32] | +++ (>50 = +++)
34 (SSWSAGENDSY; listed as Homo sapiens) [compound 34] | +++ (>50 = +++)
35 (SWSAGENDSYS; listed as Homo sapiens) [compound 35] | + (>10% =+)
36 (MTSTEQSLY; listed as Homo sapiens) [compound 36] | +++ (>50 = +++)
38 (KSWSQSSSLMY; listed as Homo sapiens) [compound 38] | +++ (>50 = +++)
39 (WSQSSSLMY; listed as Homo sapiens) [compound 39] | ++++ (>75% = ++++)
40 (TSDQLGYSY; listed as Homo sapiens) [compound 40] | +++ (>50 = +++)
41 (HSDLLEDSKY; listed as Homo sapiens) [compound 41] | +++ (>50 = +++)
43 (ETEPERHLGSY; listed as Homo sapiens) [compound 43] | +++ (>50 = +++)
44 (IPSFNEMVY; listed as Homo sapiens) [compound 44] | ++ (>20% = ++)

Results, then the substance that gave them:

Peptide exchange | Substance
+ (>10% =+) | 45 (NLDPNKIY; listed as Homo sapiens) [compound 45]
++++ (>75% = ++++) | 46 (RSDPGGGGLAYAAY; listed as Homo sapiens) [compound 46]
++++ (>75% = ++++) | 47 (WSDGVPLLY; listed as Homo sapiens) [compound 47]
+++ (>50 = +++) | 48 (FTTQDELLVY; listed as Homo sapiens) [compound 48]
++ (>20% = ++) | 49 (GSFSIQHTY; listed as Homo sapiens) [compound 49]
+++ (>50 = +++) | 50 (ITDEDEDMLSY; listed as Homo sapiens) [compound 50]
+++ (>50 = +++) | 51 (STEERRLNY; listed as Homo sapiens) [compound 51]
+++ (>50 = +++) | 52 (TTQDELLVY; listed as Homo sapiens) [compound 52]
+++ (>50 = +++) | 55 (ATEGDVLNY; listed as Homo sapiens) [compound 55]
+++ (>50 = +++) | 56 (VTEYAEEIYQY; listed as Homo sapiens) [compound 56]
+++ (>50 = +++) | 57 (ASDPASSTSCY; listed as Homo sapiens) [compound 57]
++++ (>75% = ++++) | 58 (YLENSASWY; listed as Homo sapiens) [compound 58]
+++ (>50 = +++) | 59 (FTDSQGNDIK; listed as Homo sapiens) [compound 59]
+++ (>50 = +++) | 62 (VSELVTTGHY; listed as Homo sapiens) [compound 62]
++++ (>75% = ++++) | 63 (TSEISQNALMY; listed as Homo sapiens) [compound 63]
++++ (>75% = ++++) | 65 (SSDFDPLVY; listed as Homo sapiens) [compound 65]
+++ (>50 = +++) | 67 (NVDQNQNSY; listed as Homo sapiens) [compound 67]
++ (>20% = ++) | 68 (QSLPEFGLTY; listed as Homo sapiens) [compound 68]
++ (>20% = ++) | 69 (QSLPEFGLTYY; listed as Homo sapiens) [compound 69]
+++ (>50 = +++) | 72 (VTDSTTKIAY; listed as Homo sapiens) [compound 72]
++++ (>75% = ++++) | 74 (EMEQQSQEY; listed as Homo sapiens) [compound 74]
+++ (>50 = +++) | 76 (QTDVERIKDTY; listed as Homo sapiens) [compound 76]
+++ (>50 = +++) | 78 (QLDSAVKNLY; listed as Homo sapiens) [compound 78]
++ (>20% = ++) | 80 (ELCPLPGTSAY; listed as Homo sapiens) [compound 80]
++++ (>75% = ++++) | 85 (SSDNYEHWLY; listed as Homo sapiens) [compound 85]
++ (>20% = ++) | 86 (VDPASNTY; listed as Homo sapiens) [compound 86]
++ (>20% = ++) | 87 (AFDDIATYF; listed as Homo sapiens) [compound 87]
++ (>20% = ++) | 88 (KEVDPAGHSYI; listed as Homo sapiens) [compound 88]
